Source: US20230051715A1 (MABWELL THERAPEUTICS, published 2023)
Changes are numbered by the printed parent chain. Numbers in names are those of the source. Values belong to the binder of their own block, whether it stands above or below them.

Experiments:
[1] = target: T1, C1s in normal cynomolgus monkey serum (CMS, CompTech NCYS) (cynomolgus monkey, UniProt A0A2K5VQX9 16-685); assay: cell-based or functional assay
T1 sequence: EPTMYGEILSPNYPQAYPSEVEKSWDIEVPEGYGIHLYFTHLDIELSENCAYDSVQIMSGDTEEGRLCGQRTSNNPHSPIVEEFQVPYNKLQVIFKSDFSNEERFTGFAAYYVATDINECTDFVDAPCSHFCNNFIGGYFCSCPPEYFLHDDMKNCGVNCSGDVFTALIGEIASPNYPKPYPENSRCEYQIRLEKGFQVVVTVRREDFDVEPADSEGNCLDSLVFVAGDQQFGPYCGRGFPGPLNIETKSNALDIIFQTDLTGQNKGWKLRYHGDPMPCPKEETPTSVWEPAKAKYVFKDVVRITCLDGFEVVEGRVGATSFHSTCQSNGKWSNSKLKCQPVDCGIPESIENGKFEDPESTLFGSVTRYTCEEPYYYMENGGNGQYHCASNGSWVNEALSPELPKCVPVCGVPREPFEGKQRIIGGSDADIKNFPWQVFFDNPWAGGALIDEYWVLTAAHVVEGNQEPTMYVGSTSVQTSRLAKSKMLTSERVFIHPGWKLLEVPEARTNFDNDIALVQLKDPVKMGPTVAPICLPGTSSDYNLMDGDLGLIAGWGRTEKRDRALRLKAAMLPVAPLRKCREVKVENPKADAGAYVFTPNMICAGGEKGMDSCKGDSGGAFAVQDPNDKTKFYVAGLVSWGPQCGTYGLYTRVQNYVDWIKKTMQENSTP

[2] = target: T2, C1s in normal human serum (NHS, CompTech NHS) (human, UniProt P09871 16-688); assay: cell-based or functional assay
T2 sequence (looked up): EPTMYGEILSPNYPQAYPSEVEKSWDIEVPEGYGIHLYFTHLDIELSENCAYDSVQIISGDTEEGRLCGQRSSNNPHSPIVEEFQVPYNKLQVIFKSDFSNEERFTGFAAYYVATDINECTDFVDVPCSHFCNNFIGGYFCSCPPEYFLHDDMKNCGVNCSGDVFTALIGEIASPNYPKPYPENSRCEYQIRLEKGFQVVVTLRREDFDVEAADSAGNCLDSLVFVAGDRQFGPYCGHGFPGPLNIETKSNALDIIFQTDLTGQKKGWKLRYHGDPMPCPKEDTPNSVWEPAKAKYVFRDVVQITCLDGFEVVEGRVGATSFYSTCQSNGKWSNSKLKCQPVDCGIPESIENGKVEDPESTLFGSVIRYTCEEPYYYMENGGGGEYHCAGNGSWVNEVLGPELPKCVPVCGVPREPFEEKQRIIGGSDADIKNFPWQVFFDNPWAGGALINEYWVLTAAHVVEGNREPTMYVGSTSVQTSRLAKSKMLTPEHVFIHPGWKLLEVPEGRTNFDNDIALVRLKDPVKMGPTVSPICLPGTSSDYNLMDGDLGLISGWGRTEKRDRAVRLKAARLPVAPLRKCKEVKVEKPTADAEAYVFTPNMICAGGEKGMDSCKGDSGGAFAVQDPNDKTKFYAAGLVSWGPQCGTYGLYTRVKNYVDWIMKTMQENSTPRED

[3] = target: T3, human C1s mutant M10 (D283I & P285A) (human, UniProt P09871 16-688); assay: ELISA, plate coated with human C1s mutant M10: D283I, P285A, OD450nm
T3 construct: The entry is the mutant itself
T3 sequence: T2 sequence (looked up) with D283I, P285A
Experimental: ELISA was carried out by first coating 96-well plates with 200 ng/well of full-length or truncated C1s proteins overnight. The next morning, plates were blocked with SuperBlock T20 blocking buffer (Thermo Scientific 37536) for 1 h with gentle shaking. Then, various concentrations of anti-C1s antibodies diluted in SuperBlock T20 blocking buffer were added to the plates and incubated for 1 h with gentle shaking. Mouse IgG (Sigma-Aldrich 15381) and human IgG1 (BioXCell BP0297) were used as negative controls. The plates were washed before incubating with HRP conjugated secondary antibodies diluted in SuperBlock T20 blocking buffer (goat anti-mouse IgG (H+L) cross-adsorbed secondary antibody HRP (Invitrogen G-21040) or goat anti-human IgG antibody, HRP conjugate (Millipore AP309P)) for 1 h with gentle shaking. At last, the plates were washed and color developed with ELISA liquid HRP substrate (Sigma-Aldrich), followed by stopping the reaction with addition of 1M H₂SO₄ in the same volume as the ELISA liquid substrate. Bound antibody was measured by absorbance at OD₄₅₀ₙₘ.
Binding of anti-C1s antibodies to mutants M1-M20 of human C1s was measured by ELISA as described in Example 4, and results are shown in FIGS. 6B-6U. All anti-C1s humanized variants including hz2-7(H1L2), hz2-8(H1L2 G80A) and hz2-8(H1L2 G80A/T82A) maintained strong binding properties to the majority (16 out of 20) of C1s mutants including M1 (FIG. 6B), M2 (FIG. 6C), M3 (FIG. 6D). M4 (FIG. 6E), M7 (FIG. 6H), M8 (FIG. 6I), M10 (FIG. 6K), M11 (FIG. 6L), M12 (FIG. 6M), M13 (FIG. 6N), M15 (FIG. 6P), M16 (FIG. 6Q), M17 (FIG. 6R), M18 (FIG. 6S), M19 (FIG. 6T) and M20 (FIG. 6U).

IC50, inhibition of IgM-induced C4 deposition from cynomolgus monkey serum [1]: ~0.3 µg/mL
B1: Anti-C1s antibody 2-7 (antibody, human IgG1, kappa, V domains shown)
VH: EVKLEESGGGLVPPGGSMKLSCVASGFTFSNYFMNWVRQSPEKGLEWVAEIRLKFTNYATHYAESVEGRFTISRDDSKSSVYLQMNNLRAEDTGIYYCTRDYGSRNGYFDYWGQGTTLTVSS
VL: DIVMTQAAPSVPVTPGESVSISCRSSKSLLHSNGNTFLYWFLQRPGQSPQLLIYRMSNLASGVPDRFSGSGSGTAFTLRVSRVEAEDVGIYYCMQHLEYPYTFGGGTKLEIKT
notes: the HC/LC entries may hold it too; also called clone 2-7

IC50, inhibition of IgM-induced C4 deposition from CMS [1]: 0.9 µg/mL
IC50, inhibition of cynomolgus monkey complement-mediated lysis of EA [1]: 0.8 µg/mL
IC50, inhibition of IgM-induced C4 deposition from NHS [2]: 1.1 µg/mL
IC50, inhibition of human complement-mediated lysis of EA [2]: 4.1 µg/mL
EC50 [3]: 0.006 µg/mL
B2: Anti-C1s antibody hz2-7(H1L2) (antibody, V domains shown)
VH: EVQLLESGGGLVQPGGSLRLSCAASGFTFSNYFMNWVRQAPGKGLEWVSEIRLKFTNYATHYADSVKGRFTISRDDSKSTLYLQMNSLRAEDTAVYYCTRDYGSRNGYFDYWGQGTLVTVSS
VL: DIVMTQTPLSLPVTPGEPASISCRSSKSLLHSNGNTFLYWFLQKPGQSPQLLIYRMSNLASGVPDRFSGSGSGTDFTLKISRVEAEDVGVYYCMQHLEYPYTFGGGTKLEIKR
notes: Humanized, human IgG1 / kappa; also called hz2-7(1L2)

IC50, inhibition of IgM-induced C4 deposition from CMS [1]: 0.5 µg/mL
IC50, inhibition of IgM-induced C4 deposition from NHS [2]: 0.5 µg/mL
EC50 [3]: 0.005 µg/mL
B3: Anti-C1s antibody hz2-8 (H1L2 G80A) (antibody, V domains shown)
VH: QVQLVQSGAEVKKPGASVKVSCKASGFNIKEYYMHWVRQAPEQGLEWMGWIDPENADTIYAQKFQGRVTITADTSTNTAYMELSSLRSEDTAVYYCARSRLFFAYWGQGTLVTVSS
VL: DIQMTQSPKSLSASVGDRVTITCRASQDVRTALDWYQQKPGQSPKLLIYSASYRYSGVPSRFSGSGSGTDFTLTISSLQPEDFATYYCQQQYTTPYTFGQGTKLEIKR
notes: Humanized variant with G80A in HC CDR2 (already in the entry), human IgG1 / kappa

IC50, inhibition of IgM-induced C4 deposition from CMS [1]: 0.4 µg/mL
IC50, inhibition of IgM-induced C4 deposition from NHS [2]: 0.4 µg/mL
EC50 [3]: 0.006 µg/mL
B4: Anti-C1s antibody hz2-8 (H1L2 G80A/T82A) (antibody, V domains shown)
VH: B3 VH with T58A
VL: B3 VL
notes: Humanized variant with G80A and T82A in HC CDR2 (already in the entry), human IgG1 / kappa

IC50, inhibition of IgM-induced C4 deposition from cynomolgus monkey serum [1]: ~0.5 µg/mL
B5: Anti-C1s antibody 2-8 (antibody, V domains shown)
VH: EVQLQQSGAELVRPGALVKLSCKASGFNIKEYYMHWVKQRPEQGLEWIGWIDPENGDTIYDPKFQGKASITADTSSNTAYLQLSSLTSEDTAVYYCARSRLFFAYWGQGTLVTVSA
VL: DIVMTQSHKFMSTSVGDRVSFTCKASQDVRTAVDWYQQKPGQSPKLLIYSASYRYTGVPDRFTGTGSGTDFTFTISSVQAEDLAVYFCQQQYTTPYTFGGGTKLEIKT
notes: the HC/LC entries may hold it too; also called clone 2-8
